From paper PMC6354225, “Synthesis and Preclinical Characterization of the PSMA-Targeted Hybrid Tracer PSMA-I&F for Nuclear and Fluorescence Imaging of Prostate Cancer” (Journal of Nuclear Medicine, 2019)

Legend:
[1] = system: PSMA-positive LNCaP cells; assay: Fluorescence microscopy of ligand internalization, PSMA-positive cells; type: cell-based; settings: 25 nM, 60 min, 37°C
Protocol: Competitive binding experiments (IC50) were performed in analogy to a previously published protocol ([38]) using LNCaP cells and (^125I-BA)KuE as a standard radioligand. Internalization kinetics of ^68Ga-PSMA-I&F and ^177Lu-PSMA-I&F (2 nM) were investigated in dual-tracer internalization assays using PSMA-expressing LNCaP cells and (^125I-BA)KuE (0.1 nM) as an internal reference. To differentiate between membrane-bound and internalized activity, an acid wash (50 mM NaOAc in saline, pH 4.5) was performed prior to lysis of the cells (1N NaOH) and quantification of internalized activity (lysate) using a γ-counter. […] For fluorescence microscopy, PSMA-positive LNCaP and PSMA-negative PC3 cells (seeded on glass cover slips) were incubated with the respective PSMA-I&F analog (100 or 25 nM) in the absence (total binding/internalization) or presence (nonspecific binding/internalization) of 10 μM 2-PMPA at 37 °C for 5 or 60 min. […] Ligand internalization was visualized using a Keyence BZ-9000 fluorescence microscope equipped with Cy5 (620/60 nm excitation, 700/75 nm emission), DAPI-BP (370/50 nm excitation, 447/60 nm emission), and GFP-BP (472.5/30 nm excitation, 520/35 nm emission) filters.

[2] = molecular target: human serum albumin (HSA) (Homo sapiens, UniProt P02768); assay: HSA binding by gradient high-performance liquid chromatography method; type: in vitro ADME; settings: plasma
Sequence of human serum albumin (HSA) (P02768 25-609): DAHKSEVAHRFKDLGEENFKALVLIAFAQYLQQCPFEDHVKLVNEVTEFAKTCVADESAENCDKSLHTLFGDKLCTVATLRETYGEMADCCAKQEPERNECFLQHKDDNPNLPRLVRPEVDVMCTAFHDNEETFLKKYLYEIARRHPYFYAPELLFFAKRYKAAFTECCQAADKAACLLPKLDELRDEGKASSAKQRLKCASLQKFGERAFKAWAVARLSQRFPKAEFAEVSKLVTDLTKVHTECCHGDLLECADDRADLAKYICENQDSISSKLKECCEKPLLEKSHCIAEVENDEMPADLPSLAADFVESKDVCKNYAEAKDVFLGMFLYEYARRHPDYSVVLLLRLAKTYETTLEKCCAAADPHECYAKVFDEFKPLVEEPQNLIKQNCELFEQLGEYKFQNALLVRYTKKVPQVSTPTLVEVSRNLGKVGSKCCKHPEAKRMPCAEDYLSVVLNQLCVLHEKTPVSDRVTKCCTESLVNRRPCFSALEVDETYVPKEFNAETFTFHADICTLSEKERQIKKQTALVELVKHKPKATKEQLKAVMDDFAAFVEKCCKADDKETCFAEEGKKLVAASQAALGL
Protocol: The lipophilicity of ^68Ga- and ^177Lu-PSMA-I&F was determined via a modified shake-flask method as previously described ([38]). Plasma protein binding of both tracers was determined using 2 alternative methods, that is, incubation in fresh human plasma and subsequent ultrafiltration ([20]) and a previously established gradient high-performance liquid chromatography method for the quantification of human serum albumin (HSA) binding ([41],[42]).

LNCaP xenografts = assay: Intraoperative / ex vivo fluorescence imaging of LNCaP xenografts; type: in vivo, CB17 SCID mice; settings: 2 nmol, 1 h after injection, Dino-Lite microscope and Firefly laparoscope
Protocol: Fluorescence imaging (intraoperative/ex vivo) of LNCaP xenografts in CB17 SCID mice (1 h after injection) was performed using 2 different instrumental setups: a handheld digital microscope for Cy5 (Dino-Lite Edge AM4115T-DFRW; AnMo Electronics Corp.) and DinoCapture 2.0 software (AnMo Electronics Corp.); and a 0°Firefly laparoscope that is compatible with the surgical robotic da Vinci Si system (Intuitive Surgical Inc.), using a fluid light cable for target illumination (495 FR; KARL STORZ Endoskope GmbH&Co.KG) and a bandpass filter (Edmund Optics Inc.) to isolate the Cy5 emission. Images were captured from the unprocessed Firefly video feed. For instrumental details see supplemental data.

[3] = design: method as in PMID 28721307; settings: cited from earlier work
[4] = design: method as in earlier work; settings: cited from earlier work
LNCaP tumors = settings: in vivo; cited from earlier work
[5] = system: tumor xenograft (PC-3 PIP); settings: in vivo; cited from earlier work

For `C[N+]1=C(/C=C/C=C/C=C2/N(CCCCCC(=O)NCCCC[C@@H](NC(=O)CCC(C(=O)O)N3CCN(CC(=O)O)CCN(CC(=O)O)CCN(CC(=O)O)CC3)C(=O)N[C@H](Cc3ccc(O)c(I)c3)C(=O)N[C@H](Cc3ccc(O)c(I)c3)C(=O)N[C@H](CCCCNC(=O)CCCCCCC(=O)NCCCC[C@H](NC(=O)N[C@@H](CCC(=O)O)C(=O)O)C(=O)O)C(=O)O)c3ccc(S(=O)(=O)O)cc3C2(C)C)C(C)(C)c2cc(S(=O)(=O)[O-])ccc21` (stereo partly drawn) [PSMA-I&F, DOTAGA-D-Lys(Nε-Sulfo-Cy5)-D-(3-iodo)Tyr-D-(3-iodo)Tyr-D-Lys(Nε-Sub-KuE)], the “Comparative ligand internalization by fluorescence microscopy” value [1] was “highly efficient and identical ligand internalization”, the fraction unbound [2] was 0.017 and the “Intraoperative and ex vivo fluorescence detection of tumor xenograft” value (LNCaP xenografts) was “sensitive in vivo detection of the PSMA-I&F–positive tumor xenograft with good contrast to the surrounding tissue”.

For `CC1(C)C(/C=C/C=C/C=C/C=C2\N(CCCCS(=O)(=O)O)c3ccc4ccccc4c3C2(C)C)=[N+](CCCCS(=O)(=O)[O-])c2ccc3ccccc3c21` [ICG, indocyanine green], the “brightness (quantum yield)” value [3] is listed as 0.3%.

For `CN1/C(=C/C=C/C=C/C2=[N+](CCCCCC(=O)O)c3ccc(S(=O)(=O)[O-])cc3C2(C)C)C(C)(C)c2cc(S(=O)(=O)O)ccc21` [Sulfo-Cy5], the brightness [4] is listed as 51 × 10^3 M^−1⋅cm^−1.

In the case of IRDye800CW-^68Ga-HBED-CC-KuE, the tumor-to-blood ratio (LNCaP tumors) is listed as 4.5, the tumor-to-intestines ratio (LNCaP tumors) is listed as 5.7 and the tumor-to-liver ratio (LNCaP tumors) is listed as 4.9. For the same compound, the tumor-to-muscle ratio (LNCaP tumors) was 4.8.

For ^111In-DOTA-Lys(Nε-IRDye800CW)-Sub-KuE, the “Increase of tracer uptake in the excretion organs and the tumor xenograft (PC-3 PIP) compared with parent compound” value [5] is given as 2-4 factor, the tumor-to-blood ratio [5] is given as 1.4 and the tumor-to-intestines ratio [5] is given as 7.7. For the same compound, the tumor-to-liver ratio [5] was 5.8 and the tumor-to-muscle ratio [5] was 11.6.
